Measured values from IntAct's records for PubMed 29039417.

B1: Protein PTHB1 (Homo sapiens), Q3SYG4 (parent)
chain: MSLFKARDWWSTILGDKEEFDQGCLCLANVDNSGNGQDKIIVGSFMGYLRIFSPHPAKTGDGAQAEDLLLEVDLRDPVLQVEVGKFVSGTEMLHLAVLHSRKLCVYSVSGTLGNVEHGNQCQMKLMYEHNLQRTACNMTYGSFGGVKGRDLICIQSMDGMLMVFEQESYAFGRFLPGFLLPGPLAYSSRTDSFLTVSSCQQVESYKYQVLAFATDADKRQETEQQKLGSGKRLVVDWTLNIGEQALDICIVSFNQSASSVFVLGERNFFCLKDNGQIRFMKKLDWSPSCFLPYCSVSEGTINTLIGNHNNMLHIYQDVTLKWATQLPHIPVAVRVGCLHDLKGVIVTLSDDGHLQCSYLGTDPSLFQAPNVQSRELNYDELDVEMKELQKIIKDVNKSQGVWPMTEREDDLNVSVVVSPNFDSVSQATDVEVGTDLVPSVTVKVTLQNRVILQKAKLSVYVQPPLELTCDQFTFEFMTPDLTRTVSFSVYLKRSYTPSELEGNAVVSYSRPTDRNPDGIPRVIQCKFRLPLKLICLPGQPSKTASHKITIDTNKSPVSLLSLFPGFASQSDDDQVNVMGFHFLGGARITVLASKTSQRYRIQSEQFEDLWLITNELILRLQEYFEKQGVKDFACSFSGSIPLQEYFELIDHHFELRINGEKLEELLSERAVQFRAIQRRLLARFKDKTPAPLQHLDTLLDGTYKQVIALADAVEENQGNLFQSFTRLKSATHLVILLIALWQKLSADQVAILEAAFLPLQEDTQELGWEETVDAAISHLLKTCLSKSSKEQALNLNSQLNIPKDTSQLKKHITLLCDRLSKGGRLCLSTDAAAPQTMVMPGGCTTIPESDLEERSVEQDSTELFTNHRHLTAETPRPEVSPLQGVSE
partner: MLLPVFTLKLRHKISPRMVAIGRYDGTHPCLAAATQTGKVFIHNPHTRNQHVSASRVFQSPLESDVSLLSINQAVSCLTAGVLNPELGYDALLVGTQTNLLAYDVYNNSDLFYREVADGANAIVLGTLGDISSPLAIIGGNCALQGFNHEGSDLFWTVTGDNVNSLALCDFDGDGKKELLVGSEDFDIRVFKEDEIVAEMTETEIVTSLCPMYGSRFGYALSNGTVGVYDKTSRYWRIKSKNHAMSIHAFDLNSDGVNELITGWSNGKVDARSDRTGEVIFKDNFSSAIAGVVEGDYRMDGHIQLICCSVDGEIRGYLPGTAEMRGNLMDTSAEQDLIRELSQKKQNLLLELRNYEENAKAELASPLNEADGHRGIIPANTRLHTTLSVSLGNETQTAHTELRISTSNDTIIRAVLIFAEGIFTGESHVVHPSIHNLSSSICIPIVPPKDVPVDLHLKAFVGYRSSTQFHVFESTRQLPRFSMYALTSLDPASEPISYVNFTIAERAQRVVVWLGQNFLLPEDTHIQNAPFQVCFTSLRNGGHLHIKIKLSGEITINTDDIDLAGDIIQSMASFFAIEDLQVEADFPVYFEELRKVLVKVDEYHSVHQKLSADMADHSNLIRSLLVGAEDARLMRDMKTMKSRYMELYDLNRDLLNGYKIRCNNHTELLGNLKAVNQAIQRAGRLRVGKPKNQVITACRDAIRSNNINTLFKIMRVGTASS
B2: Protein PTHB1 (Homo sapiens), Q3SYG4 (parent)
chain: B1 chain
partner: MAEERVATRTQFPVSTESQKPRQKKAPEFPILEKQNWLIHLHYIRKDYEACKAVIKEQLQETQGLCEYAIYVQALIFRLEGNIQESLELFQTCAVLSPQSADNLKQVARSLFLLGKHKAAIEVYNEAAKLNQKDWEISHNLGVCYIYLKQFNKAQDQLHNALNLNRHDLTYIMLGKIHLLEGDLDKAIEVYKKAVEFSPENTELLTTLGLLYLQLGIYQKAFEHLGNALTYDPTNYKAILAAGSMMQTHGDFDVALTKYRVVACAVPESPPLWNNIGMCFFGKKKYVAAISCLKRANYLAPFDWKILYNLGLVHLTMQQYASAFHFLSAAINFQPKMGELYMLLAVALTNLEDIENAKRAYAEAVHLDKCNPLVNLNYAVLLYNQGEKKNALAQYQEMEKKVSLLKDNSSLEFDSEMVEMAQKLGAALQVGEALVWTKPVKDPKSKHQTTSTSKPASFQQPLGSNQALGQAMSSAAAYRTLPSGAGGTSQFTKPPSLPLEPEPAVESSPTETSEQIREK

Variants of: B1
Details: with bbs2_human BBS2, Q9BXC9

Variant | effect of a mutation on the interaction
P516E | with no effect
C843E | with no effect
Q693E | with no effect
T771K | with no effect
E406K | with no effect
I676E | with no effect
R600E | with no effect
R600A | with no effect
G884A | with no effect
L616E | with no effect
R678E | with no effect
E668A | with no effect
C634E | with no effect
K810A | with no effect
S806A | with no effect
G518K | with no effect
S425A | with no effect
S425K | with no effect
P530E | with no effect
G701A | with no effect
K443E | with no effect
Q447A | with no effect
Q597K | with no effect
F624A | with no effect

Variant | effect of a mutation on the interaction
T589K | with no effect
K630E | with no effect
K630A | with no effect
F606K | with no effect
A750E | with no effect
I751E | with no effect
E862K | with no effect
E862A | with no effect
V856A | with no effect
T829E | with no effect
T829A | with no effect
L851E | with no effect
P689A | with no effect
P691S | disrupting interaction strength
L680A | with no effect
V671K | with no effect
L709K | with no effect
I657A | with no effect
S787K | with no effect
I649A | with no effect
V838E | with no effect
V522K | with no effect
T428A | with no effect
Y495K | with no effect

Variant | effect of a mutation on the interaction
S855K | with no effect
E660K | with no effect
K809E | with no effect
T813A | with no effect
I534E | with no effect
R483A | with no effect
V442E | with no effect
V442A | with no effect
P875A | with no effect
L814A | with no effect
L529A | with no effect
P877K | with no effect
K554A | with no effect
T702K | with no effect
K786E | with no effect
L695M | disrupting interaction strength
L452A | with no effect
P758E | with no effect
S507E | with no effect
D470A | with no effect
A755K | with no effect
Q742L | disrupting interaction strength
G638K | with no effect
L819A | with no effect

Variant | effect of a mutation on the interaction
A872E | with no effect
A872K | with no effect
V629A | with no effect
V505E | with no effect
A739K | with no effect
K685E | with no effect
L481K | with no effect
H694K | with no effect
H694E | with no effect
D409A | with no effect
I523K | with no effect
L411K | with no effect
T484K | with no effect
F684K | with no effect
S555A | with no effect
V749K | with no effect
L737A | with no effect
K456E | with no effect
N515K | with no effect
H869E | with no effect
R619E | with no effect
S886E | with no effect
V461K | with no effect
N448E | with no effect

Variant | effect of a mutation on the interaction
N448K | with no effect
L795K | with no effect
T688E | disrupting interaction strength
D804F | disrupting interaction strength
L757K | with no effect
L757E | with no effect
L692A | with no effect
N503K | with no effect
E475A | with no effect
T482A | with no effect
T405A | with no effect
D762K | with no effect
T543E | with no effect
T478E | with no effect
T478K | with no effect
V879E | with no effect
S603K | with no effect
L698E | with no effect
E644A | with no effect
L784E | with no effect
V459A | with no effect
K526A | with no effect
K526E | with no effect
S486A | with no effect

Variant | effect of a mutation on the interaction
S729E | with no effect
V713E | with no effect
V713A | with no effect
V713K | with no effect
L699A | with no effect
T549E | with no effect
N719A | with no effect
L648K | with no effect
T595A | with no effect
T595I | disrupting interaction strength
T874K | with no effect
V437K | with no effect
A455K | with no effect
R679A | with no effect
R449A | with no effect
K743E | with no effect
F646K | with no effect
S880A | with no effect
L825E | with no effect
L825A | with no effect
G841A | with no effect
F636E | with no effect
F636K | with no effect
S509A | with no effect

Variant | effect of a mutation on the interaction
H652E | with no effect
I550A | with no effect
N412A | with no effect
N716K | with no effect
K728E | with no effect
A682E | with no effect
P463A | with no effect
V772A | disrupting interaction strength
Y460A | with no effect
F474K | with no effect
F474A | with no effect
V885A | with no effect
V885K | with no effect
C525A | with no effect
R521A | with no effect
I601E | with no effect
I601K | with no effect
L766K | with no effect
Q807E | with no effect
Q524E | with no effect
I519K | with no effect

Variants of: B2
Details: with bbs4_human BBS4, Q96RK4

Variant | effect of a mutation on the interaction
E406A | with no effect
E406K | with no effect
D409E | with no effect
D409K | with no effect
D409A | with no effect
T405E | with no effect
T405A | with no effect
T405K | with no effect
L411E | with no effect
L411K | with no effect
L411A | with no effect
D410E | with no effect
D410K | with no effect
D410A | with no effect
E408K | with no effect
E408A | with no effect
R407K | with no effect
R407A | with no effect
R407E | with no effect
